Source: patent US8026218
Bridge positions count the residues as written; N and C are the ends. Square brackets hold non-standard residues; d marks the D form. Primed or numbered codes have the meaning given here. Ends that are not written are not given here. * marks the point of attachment. NH(3,5-(CF3)2-benzyl) = FC(F)(F)c1cc(CN*)cc(C(F)(F)F)c1; O‑Bzl(CF3)2(3) = C-terminal O-Bzl(CF3)2 ester; NH‑Bn(CF3)2 = C-terminal Bn(CF3)2 amide; dPen = CC(C)(S)[C@@H](N)C(=O)O; Pen = CC(C)(S)[C@H](N)C(=O)O; Nle = CCCC[C@H](N)C(=O)O

Assays:
[1] = molecular target: human δ opioid receptor (human) (UniProt P41143); assay: competition vs [3H]DPDPE, hDOR cell membranes
[2] = molecular target: rat µ opioid receptor (rat) (UniProt P33535); assay: cell-based or functional assay
[3] = molecular target: human NK1 receptor (human) (UniProt P25103); assay: competition vs [3H]Substance P, hNK1 CHO cell membranes
[4] = molecular target: rat µ opioid receptor (rat) (UniProt P33535); assay: competition vs [3H]DAMGO, rMOR cell membranes
[5] = molecular target: rat NK1 receptor (rat) (UniProt P14600); assay: competition vs [3H]Substance P, rNK1 CHO cell membranes
[6] = molecular target: rat µ opioid receptor (rat) (UniProt P33535); assay: radioligand competition vs [3H]DAMGO, membranes of rMOR cells
[7] = molecular target: human δ opioid receptor (human) (UniProt P41143); assay: radioligand competition vs [3H]DPDPE, membranes of hDOR cells
[8] = molecular target: human NK1 receptor (human) (UniProt P25103); assay: radioligand competition vs [3H]substance P, membranes of hNK1 CHO cells
[9] = molecular target: rat NK1 receptor (rat) (UniProt P14600); assay: radioligand competition vs [3H]substance P, membranes of rNK1 CHO cells
[10] = molecular target: guinea pig NK1 receptor (guinea pig) (UniProt P30547); assay: cell-based or functional assay
[11] = molecular target: δ opioid receptor of the mouse isolated vas deferens (mouse) (UniProt P32300); assay: cell-based or functional assay
[12] = molecular target: µ opioid receptor of the guinea pig isolated ileum (guinea pig) (UniProt P97266); assay: cell-based or functional assay
[13] = molecular target: human δ opioid receptor (human) (UniProt P41143); assay: cell-based or functional assay
[14] = molecular target: δ opioid receptor of the mouse isolated vas deferens (mouse), P32300; assay: cell-based or functional assay
Sequence of δ opioid receptor of the mouse isolated vas deferens (mouse), P32300 (P32300 whole entry, stated change not applied): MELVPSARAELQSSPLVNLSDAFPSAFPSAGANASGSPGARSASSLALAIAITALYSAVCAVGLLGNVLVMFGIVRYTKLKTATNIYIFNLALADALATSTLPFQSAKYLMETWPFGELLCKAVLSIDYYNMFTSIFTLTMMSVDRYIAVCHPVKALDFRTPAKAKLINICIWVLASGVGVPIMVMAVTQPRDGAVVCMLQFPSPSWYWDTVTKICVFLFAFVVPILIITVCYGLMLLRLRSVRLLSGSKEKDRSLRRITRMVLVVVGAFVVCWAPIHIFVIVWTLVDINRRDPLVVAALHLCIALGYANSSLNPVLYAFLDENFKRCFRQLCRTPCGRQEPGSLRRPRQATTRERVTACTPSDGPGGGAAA

Sequence of rat µ opioid receptor (rat) (P33535 whole entry): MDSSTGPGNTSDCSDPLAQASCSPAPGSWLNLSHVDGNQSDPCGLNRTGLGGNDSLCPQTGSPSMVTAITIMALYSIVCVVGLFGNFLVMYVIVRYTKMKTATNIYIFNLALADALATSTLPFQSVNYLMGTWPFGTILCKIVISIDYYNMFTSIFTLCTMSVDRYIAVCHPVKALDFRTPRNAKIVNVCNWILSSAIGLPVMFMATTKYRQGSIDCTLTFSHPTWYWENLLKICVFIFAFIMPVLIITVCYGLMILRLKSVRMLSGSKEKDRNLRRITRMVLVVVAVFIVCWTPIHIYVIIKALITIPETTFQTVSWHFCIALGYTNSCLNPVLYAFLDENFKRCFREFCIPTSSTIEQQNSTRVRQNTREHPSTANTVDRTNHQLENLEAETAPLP
Sequence of human δ opioid receptor (human) (P41143 whole entry, stated change not applied): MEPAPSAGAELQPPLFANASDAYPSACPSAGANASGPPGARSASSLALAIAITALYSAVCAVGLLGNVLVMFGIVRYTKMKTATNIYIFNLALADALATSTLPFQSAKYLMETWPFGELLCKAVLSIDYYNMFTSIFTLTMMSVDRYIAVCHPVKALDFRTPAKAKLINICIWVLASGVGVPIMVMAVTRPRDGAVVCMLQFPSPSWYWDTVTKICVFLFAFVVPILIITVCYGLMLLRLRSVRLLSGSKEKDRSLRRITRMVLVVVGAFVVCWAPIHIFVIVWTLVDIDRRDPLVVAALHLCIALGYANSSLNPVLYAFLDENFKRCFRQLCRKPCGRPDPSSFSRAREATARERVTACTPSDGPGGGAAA
Sequence of human NK1 receptor (human) (P25103 whole entry): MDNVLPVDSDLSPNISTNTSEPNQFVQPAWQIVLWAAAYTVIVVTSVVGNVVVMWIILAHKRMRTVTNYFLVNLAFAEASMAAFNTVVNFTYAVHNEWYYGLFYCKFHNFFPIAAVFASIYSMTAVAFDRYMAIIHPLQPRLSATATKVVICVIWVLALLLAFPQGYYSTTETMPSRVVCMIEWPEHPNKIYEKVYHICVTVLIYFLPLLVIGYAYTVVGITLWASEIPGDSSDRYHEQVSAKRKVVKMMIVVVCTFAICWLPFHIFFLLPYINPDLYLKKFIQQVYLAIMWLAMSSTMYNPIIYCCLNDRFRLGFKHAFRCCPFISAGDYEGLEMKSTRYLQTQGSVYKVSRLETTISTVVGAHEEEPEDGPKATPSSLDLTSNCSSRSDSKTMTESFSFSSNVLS
Sequence of rat NK1 receptor (rat) (P14600 whole entry): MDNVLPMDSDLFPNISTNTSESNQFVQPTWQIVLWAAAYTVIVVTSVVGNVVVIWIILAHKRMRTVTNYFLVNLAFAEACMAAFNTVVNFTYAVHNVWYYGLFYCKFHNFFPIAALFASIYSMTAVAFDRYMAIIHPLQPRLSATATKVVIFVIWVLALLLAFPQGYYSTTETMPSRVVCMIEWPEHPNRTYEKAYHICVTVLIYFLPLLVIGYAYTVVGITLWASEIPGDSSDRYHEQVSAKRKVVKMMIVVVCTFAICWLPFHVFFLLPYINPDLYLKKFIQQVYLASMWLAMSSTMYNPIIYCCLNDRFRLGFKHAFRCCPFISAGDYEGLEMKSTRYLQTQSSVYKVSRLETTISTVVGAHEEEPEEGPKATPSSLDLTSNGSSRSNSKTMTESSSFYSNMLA
Sequence of δ opioid receptor of the mouse isolated vas deferens (mouse) (P32300 whole entry, stated change not applied): as the sequence (P32300 whole entry, stated change not applied) above
Sequence of µ opioid receptor of the guinea pig isolated ileum (guinea pig) (P97266 whole entry): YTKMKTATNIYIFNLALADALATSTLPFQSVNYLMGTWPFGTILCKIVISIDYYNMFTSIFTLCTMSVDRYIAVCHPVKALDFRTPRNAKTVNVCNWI
Sequence of guinea pig NK1 receptor (guinea pig) (P30547 whole entry): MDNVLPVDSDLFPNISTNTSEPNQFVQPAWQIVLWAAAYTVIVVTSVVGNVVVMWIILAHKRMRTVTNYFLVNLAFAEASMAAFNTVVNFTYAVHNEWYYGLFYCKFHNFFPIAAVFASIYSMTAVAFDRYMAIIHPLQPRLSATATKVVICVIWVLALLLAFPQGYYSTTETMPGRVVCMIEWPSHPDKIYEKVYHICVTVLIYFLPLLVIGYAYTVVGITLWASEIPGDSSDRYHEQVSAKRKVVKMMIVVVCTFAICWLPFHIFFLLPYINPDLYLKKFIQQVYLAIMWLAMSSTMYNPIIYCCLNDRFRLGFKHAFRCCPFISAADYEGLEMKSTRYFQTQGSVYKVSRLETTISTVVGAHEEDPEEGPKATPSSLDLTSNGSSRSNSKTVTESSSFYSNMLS

| Binder | Ki [3] [nM] | Ki [5] [nM] | Ki [6] [nM] | Ki [7] [nM] | Ki [8] [nM] | Ki [9] [nM] | GTP binding rMOR EC50 [2] [nM] | GTP binding rMOR Emax [2] [%] | also measured |
| --- | --- | --- | --- | --- | --- | --- | --- | --- | --- |
| Y[dPen]GF[Nle]P[Pen]W-{NH(3,5-(CF3)2-benzyl)} (disulfide 2-7) [Tyr[DPenGlyPheNleProPen]TrpNHBn(CF3)2] | 59 | 163 |  |  |  |  |  |  | Ki [1]: 152 nM; GTP binding EC50 [2]: 2910 nM; GTP binding Emax [2]: 15%; Ki [4]: 1970 nM |
| Y[dPen]GF[Nle]P[Pen]W-{NH‑Bn(CF3)2} (disulfide 2-7) [Tyr[DPenGlyPheNleProPen]TrpNHBn(CF3)2 (TY047)] |  |  | 1970 | 152 | 59 | 163 | 2910 | 15 |  |
| Y[dPen]GF[Nle]P[dPen]W-{NH(3,5-(CF3)2-benzyl)} (disulfide 2-7) [Tyr[DPenGlyPheNleProDPen]TrpNHBn(CF3)2] | 1.9 | 26 |  |  |  |  |  |  |  |
| Y[dA]GF[dA]W-{O‑Bzl(CF3)2(3)} [Tyr-DAla-Gly-Phe-D-Ala-Trp-O-Bzl(CF3)2 (NP40)] |  |  |  |  |  |  |  |  | GPI/LMMP SP antagonist Ke [10]: 608 nM; MVD δ-agonist IC50 [11]: 58 nM; GPI/LMMP µ-agonist IC50 [12]: 528 nM |
| Y[dPen]GF[Nle]P[dPen]W-{NH‑Bn(CF3)2} (disulfide 2-7) [Tyr[DPenGlyPheNleProDPen]TrpNHBn(CF3)2 (TY048)] |  |  | 998 |  | 1.9 | 26 | 135 | 29 |  |
| Y[dC]GF[Nle]P[dC]W-{NH(3,5-(CF3)2-benzyl)} (disulfide 2-7) [Tyr[DCysGlyPheNleProDCys]TrpNHBn(CF3)2 (TY038)] |  |  | 156 | 55.5 | 0.24 | 7.11 | 21.7 | 11 | GTP binding hDOR EC50 [13]: 14 nM; GTP binding hDOR Emax [13]: 87%; MVD opioid(delta) agonist IC50 [14]: 18.9 nM |
